B1: LINE1-full (parent)
chain: UACGUAGGUGGUUUUCCCCUGAUAGUGCUAAGGGGGCCUGGAAGUUUGGACUGGGCAGAGCUCAACACAGCGUGGCAAAGUGGCUGUGGCUAGACUGCCUCUCUGGAUUCCUCGUCACUCAGCAGGGCAUCUCUGAGAGAAAUGCC

Variants of: B1
Assay: self-cleavage, relative activity (ratio to wild type); higher = more cleavage; in vitro, sequencing; the parent is a self-cleaving ribozyme

Variant	self-cleavage
U20C G72C	2.53
U20C A117G	1.59
U20A U73C	1.42
U20A U73A	1.5
U20G U112C	0.76
U20G A69G	1.05
U20A U85C	0.09
U20A A129G	0.97
U20A A138U	1.19
U20A U130C	1.45
U20A U130A	0.32
U20C U134C	1.57
U20C U134G	0.77
U20C U134A	0.96
U20C A31G	1.16
U20C A31U	1.08
G21C U143C	1.97
U20C U26C	1.26
U20C U26A	0.92
U20C A136C	1.74
U20C A136G	1.26
U20A A50U	1.06
C19U U47C	0.98
U20G C37A	1.04

Variant	self-cleavage
A22G G93A	0.03
U20C U115A	1.54
A22G C133U	0.58
U20A C38A	1.01
U20A A117G	1.94
U20A A117C	1.77
U20A A117U	1.49
U20C G55A	0.25
U20A U119A	1.47
U20A U119C	1.05
A22G A69C	0
U20A G48A	0.77
U20A G48U	1.42
U20G A136U	0.98
G21A U81A	1.8
G21U A65C	0
G21A A65U	0.21
U20A U102C	1.46
G21U U62A	0.02
U20A A43U	1.46
U20C G74U	1.46
U20C G35A	1.73
U20C A50G	0.66
U20C C98A	0.07

Variant	self-cleavage
U20A A77U	1.14
U20A A77C	1.75
U20A A77G	2.25
U20C U52A	0.69
G21U U96C	0.06
G21A A59G	0.04
U20G U119C	1.74
A22G C76U	1.39
U20C U132G	0.46
G21A A117U	1.55
G21U A77G	1.7
U20A G44U	1.2
U20A U45C	1.36
U20C U46G	1.52
U20C U46A	0.85
G21U U85G	0.08
U20G U108C	1.97
U20G U96C	0.26
U20C U47A	1.19
U20C C28A	0.84
C19U U85C	0.21
G21A A78G	1.31
U20C C56U	0.11
G21A U91C	0.35

Variant	self-cleavage
U20C U108C	1.62
U20C A140G	1.35
U20G A142G	1.09
U20C C37U	1.33
U20C C37G	1.08
A22G C37U	0.94
U20A A142G	1.08
U20C A107U	1.34
U20C A107G	1.6
G21A U96A	0.06
U20A U132A	1.61
U20A A57U	0.11
U20A A57G	1
G21A U109A	0.64
G21A U109C	0.95
U20A A59U	0.7
U20G U91A	0.47
A22G A77U	0.79
A22G A77C	1.09
A22G A77G	1.77
A22G G122C	1.31
A22G G122A	0
G21U A94G	0.18
C19U U104C	0.65

Variant	self-cleavage
C19U U104A	1.07
A22G G75A	1.13
C19U U143C	0.98
U20G G34A	0.69
G21A U46C	1.31
U20A G72A	1.31
A22G C71U	0.55
U20C A59G	0.11
A22C	1.51
A22G	1.12
U20A A42U	0.9
G21A G33A	1.39
G21A U29C	1.04
A22G A142G	1.23
U20A U52G	1.58
U20A U52A	0.54
U20A U52C	1.77
U20G A121G	1.27
G21A C146U	1.56
U20C A77U	1.02
U20C A77G	1.7
U20C U62C	0.1
U20C G89A	0.09
U20A C110A	1.4

Variant	self-cleavage
A22G G139A	1.82
G21A A67G	0.48
A22G U45G	0.82
A22G U45A	0.94
U20A G86A	0.18
G21A U115A	1.46
U20A C99A	0.74
U20C C103A	1.49
A22C A92U	1.7
A22G G49A	0.84
C19U U45C	0.86
C19U U45A	1.43
C19U U115A	1.04
U20A U108G	0.53
U20C A65G	0.06
U20C G93A	0.04
U20C C63U	0.48
A22G A94G	0.56
A22G A94C	0.07
A22G A94U	0.37
A22G A24G	0.98
U20G	1.1
U20A	1.21
U20C	1.37

Variant	self-cleavage
U20C C71U	0.77
A22G G53U	1.29
U20G A57U	0.21
U20C C111U	1.03
U20C U87C	0.24
U20C U87A	0.1
G21A U85C	0.18
U20C C123U	0.91
U20C C123A	1.34
U20C A78U	1.86
A22G A59C	1.31
A22G A59U	0.33
A22G G127U	1.67
G21A A142G	1.66
U20C C110U	1.4
U20C A42U	1.06
G21U G72A	1.62
A22C A129U	1.96
G21U C51A	1.48
U20C U96C	0.08
A22G G80U	1
U20A A121G	1.14
U20A A121U	1.55

— the RNAGym collection of RNA variant scans (doi:10.7554/elife.90254)
